T1: EsCas13d, nuclease-dead (Eubacterium siraeum, UniProt B0MS50, R295A;H300A;R849A;H854A)
T1 sequence: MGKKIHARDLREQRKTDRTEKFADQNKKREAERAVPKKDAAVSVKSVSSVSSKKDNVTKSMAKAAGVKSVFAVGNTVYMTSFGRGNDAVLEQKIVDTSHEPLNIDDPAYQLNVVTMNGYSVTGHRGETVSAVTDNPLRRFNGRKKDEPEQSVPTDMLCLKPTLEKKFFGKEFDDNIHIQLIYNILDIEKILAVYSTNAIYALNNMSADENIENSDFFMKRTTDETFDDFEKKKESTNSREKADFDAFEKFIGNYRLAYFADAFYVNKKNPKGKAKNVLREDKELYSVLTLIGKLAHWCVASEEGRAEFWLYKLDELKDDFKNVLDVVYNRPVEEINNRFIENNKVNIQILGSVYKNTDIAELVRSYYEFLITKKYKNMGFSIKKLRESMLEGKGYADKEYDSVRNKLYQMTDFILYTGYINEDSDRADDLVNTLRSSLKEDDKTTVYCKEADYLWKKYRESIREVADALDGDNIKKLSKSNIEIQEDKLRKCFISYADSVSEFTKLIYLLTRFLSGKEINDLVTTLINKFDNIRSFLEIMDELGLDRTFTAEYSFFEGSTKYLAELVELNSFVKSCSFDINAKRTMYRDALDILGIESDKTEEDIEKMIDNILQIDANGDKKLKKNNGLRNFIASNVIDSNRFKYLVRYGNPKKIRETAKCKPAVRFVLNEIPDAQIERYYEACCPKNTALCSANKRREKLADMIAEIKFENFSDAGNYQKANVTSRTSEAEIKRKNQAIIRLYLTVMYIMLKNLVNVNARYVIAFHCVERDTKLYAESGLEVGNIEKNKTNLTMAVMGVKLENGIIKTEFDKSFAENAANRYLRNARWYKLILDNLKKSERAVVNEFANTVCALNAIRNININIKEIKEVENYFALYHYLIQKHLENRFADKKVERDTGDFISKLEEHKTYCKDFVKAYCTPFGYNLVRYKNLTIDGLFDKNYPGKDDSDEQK

B1: target 1 insG 3' of 8,insG 3' of 7 (mixed)
RNA 1: CACCCGUGCAAAAAUGCAGGGGUCUAAAACUGAGCGGAUAACCUCUCUAUGG
RNA 2: GGGAAUGGAUCCACAUCUACGAAUUCGUACCAUAGAGAGGUUAUGCGCGCUCACCGAGAUCGGAAGAGCACACGU
B2: target 1 insU 3' of 15,insC 3' of 9 (mixed)
RNA 1: CACCCGUGCAAAAAUGCAGGGGUCUAAAACUGAGCGGAUAACCUCUCUAUGG
RNA 2: GGGAAUGGAUCCACAUCUACGAAUUCGUACCAUAGAGUAGGUUACUCCGCUCACCGAGAUCGGAAGAGCACACGU
B3: target 1 C6U,A16C (mixed)
RNA 1: CACCCGUGCAAAAAUGCAGGGGUCUAAAACUGAGCGGAUAACCUCUCUAUGG
RNA 2: GGGAAUGGAUCCACAUCUACGAAUUCGUACCAUAGCGAGGUUAUCUGCUCACCGAGAUCGGAAGAGCACACGU
B4: target 1 insC 3' of 12,insA 3' of 2 (mixed)
RNA 1: CACCCGUGCAAAAAUGCAGGGGUCUAAAACUGAGCGGAUAACCUCUCUAUGG
RNA 2: GGGAAUGGAUCCACAUCUACGAAUUCGUACCAUAGAGAGGCUUAUCCGCUCAACCGAGAUCGGAAGAGCACACGU
B5: target 1 insU 3' of 15,insU 3' of 7 (mixed)
RNA 1: CACCCGUGCAAAAAUGCAGGGGUCUAAAACUGAGCGGAUAACCUCUCUAUGG
RNA 2: GGGAAUGGAUCCACAUCUACGAAUUCGUACCAUAGAGUAGGUUAUCUCGCUCACCGAGAUCGGAAGAGCACACGU
B6: target 1 complement block 3-10 (mixed)
RNA 1: CACCCGUGCAAAAAUGCAGGGGUCUAAAACUGAGCGGAUAACCUCUCUAUGG
RNA 2: GGGAAUGGAUCCACAUCUACGAAUUCGUACCAUAGAGAGGUAUAGGCGACACCGAGAUCGGAAGAGCACACGU
B7: target 1 U8C,G17U (mixed)
RNA 1: CACCCGUGCAAAAAUGCAGGGGUCUAAAACUGAGCGGAUAACCUCUCUAUGG
RNA 2: GGGAAUGGAUCCACAUCUACGAAUUCGUACCAUAUAGAGGUUACCCGCUCACCGAGAUCGGAAGAGCACACGU
B8: target 1 insA 3' of 12,insU 3' of 5 (mixed)
RNA 1: CACCCGUGCAAAAAUGCAGGGGUCUAAAACUGAGCGGAUAACCUCUCUAUGG
RNA 2: GGGAAUGGAUCCACAUCUACGAAUUCGUACCAUAGAGAGGAUUAUCCGUCUCACCGAGAUCGGAAGAGCACACGU
B9: target 1 C2G,U8G (mixed)
RNA 1: CACCCGUGCAAAAAUGCAGGGGUCUAAAACUGAGCGGAUAACCUCUCUAUGG
RNA 2: GGGAAUGGAUCCACAUCUACGAAUUCGUACCAUAGAGAGGUUAGCCGCUGACCGAGAUCGGAAGAGCACACGU
B10: target 1 C6G,A14G (mixed)
RNA 1: CACCCGUGCAAAAAUGCAGGGGUCUAAAACUGAGCGGAUAACCUCUCUAUGG
RNA 2: GGGAAUGGAUCCACAUCUACGAAUUCGUACCAUAGAGGGGUUAUCGGCUCACCGAGAUCGGAAGAGCACACGU
B11: target 1 C4A,G5U (mixed)
RNA 1: CACCCGUGCAAAAAUGCAGGGGUCUAAAACUGAGCGGAUAACCUCUCUAUGG
RNA 2: GGGAAUGGAUCCACAUCUACGAAUUCGUACCAUAGAGAGGUUAUCCUAUCACCGAGAUCGGAAGAGCACACGU
B12: target 1 C6U,C7A (mixed)
RNA 1: CACCCGUGCAAAAAUGCAGGGGUCUAAAACUGAGCGGAUAACCUCUCUAUGG
RNA 2: GGGAAUGGAUCCACAUCUACGAAUUCGUACCAUAGAGAGGUUAUAUGCUCACCGAGAUCGGAAGAGCACACGU
B13: target 1 del22 (mixed)
RNA 1: CACCCGUGCAAAAAUGCAGGGGUCUAAAACUGAGCGGAUAACCUCUCUAUGG
RNA 2: GGGAAUGGAUCCACAUCUACGAAUUCGUACAUAGAGAGGUUAUCCGCUCACCGAGAUCGGAAGAGCACACGU
B14: target 1 A9U,U10C (mixed)
RNA 1: CACCCGUGCAAAAAUGCAGGGGUCUAAAACUGAGCGGAUAACCUCUCUAUGG
RNA 2: GGGAAUGGAUCCACAUCUACGAAUUCGUACCAUAGAGAGGUCUUCCGCUCACCGAGAUCGGAAGAGCACACGU
B15: target 1 insC 3' of 22,insA 3' of 11 (mixed)
RNA 1: CACCCGUGCAAAAAUGCAGGGGUCUAAAACUGAGCGGAUAACCUCUCUAUGG
RNA 2: GGGAAUGGAUCCACAUCUACGAAUUCGUACCCAUAGAGAGGUAUAUCCGCUCACCGAGAUCGGAAGAGCACACGU
B16: target 1 insA 3' of 12,insG 3' of 7 (mixed)
RNA 1: CACCCGUGCAAAAAUGCAGGGGUCUAAAACUGAGCGGAUAACCUCUCUAUGG
RNA 2: GGGAAUGGAUCCACAUCUACGAAUUCGUACCAUAGAGAGGAUUAUCGCGCUCACCGAGAUCGGAAGAGCACACGU
B17: target 1 insC 3' of 12,insG 3' of 1 (mixed)
RNA 1: CACCCGUGCAAAAAUGCAGGGGUCUAAAACUGAGCGGAUAACCUCUCUAUGG
RNA 2: GGGAAUGGAUCCACAUCUACGAAUUCGUACCAUAGAGAGGCUUAUCCGCUCAGCCGAGAUCGGAAGAGCACACGU
B18: target 1 C6A,C21U (mixed)
RNA 1: CACCCGUGCAAAAAUGCAGGGGUCUAAAACUGAGCGGAUAACCUCUCUAUGG
RNA 2: GGGAAUGGAUCCACAUCUACGAAUUCGUACUAUAGAGAGGUUAUCAGCUCACCGAGAUCGGAAGAGCACACGU
B19: target 1 insA 3' of 13,insU 3' of 9 (mixed)
RNA 1: CACCCGUGCAAAAAUGCAGGGGUCUAAAACUGAGCGGAUAACCUCUCUAUGG
RNA 2: GGGAAUGGAUCCACAUCUACGAAUUCGUACCAUAGAGAGAGUUAUUCCGCUCACCGAGAUCGGAAGAGCACACGU
B20: target 1 insA 3' of 19,insU 3' of 7 (mixed)
RNA 1: CACCCGUGCAAAAAUGCAGGGGUCUAAAACUGAGCGGAUAACCUCUCUAUGG
RNA 2: GGGAAUGGAUCCACAUCUACGAAUUCGUACCAUAAGAGAGGUUAUCUCGCUCACCGAGAUCGGAAGAGCACACGU
B21: target 1 insG 3' of 16,insA 3' of 13 (mixed)
RNA 1: CACCCGUGCAAAAAUGCAGGGGUCUAAAACUGAGCGGAUAACCUCUCUAUGG
RNA 2: GGGAAUGGAUCCACAUCUACGAAUUCGUACCAUAGAGGAGAGUUAUCCGCUCACCGAGAUCGGAAGAGCACACGU
B22: target 1 insA 3' of 22 (mixed)
RNA 1: CACCCGUGCAAAAAUGCAGGGGUCUAAAACUGAGCGGAUAACCUCUCUAUGG
RNA 2: GGGAAUGGAUCCACAUCUACGAAUUCGUACACAUAGAGAGGUUAUCCGCUCACCGAGAUCGGAAGAGCACACGU
B23: target 1 insC 3' of 9,insG 3' of 8 (mixed)
RNA 1: CACCCGUGCAAAAAUGCAGGGGUCUAAAACUGAGCGGAUAACCUCUCUAUGG
RNA 2: GGGAAUGGAUCCACAUCUACGAAUUCGUACCAUAGAGAGGUUACUGCCGCUCACCGAGAUCGGAAGAGCACACGU
B24: target 1 C6G,U19A (mixed)
RNA 1: CACCCGUGCAAAAAUGCAGGGGUCUAAAACUGAGCGGAUAACCUCUCUAUGG
RNA 2: GGGAAUGGAUCCACAUCUACGAAUUCGUACCAAAGAGAGGUUAUCGGCUCACCGAGAUCGGAAGAGCACACGU
B25: target 1 insC 3' of 18,insA 3' of 4 (mixed)
RNA 1: CACCCGUGCAAAAAUGCAGGGGUCUAAAACUGAGCGGAUAACCUCUCUAUGG
RNA 2: GGGAAUGGAUCCACAUCUACGAAUUCGUACCAUACGAGAGGUUAUCCGCAUCACCGAGAUCGGAAGAGCACACGU
B26: target 1 insU 3' of 21,insA 3' of 10 (mixed)
RNA 1: CACCCGUGCAAAAAUGCAGGGGUCUAAAACUGAGCGGAUAACCUCUCUAUGG
RNA 2: GGGAAUGGAUCCACAUCUACGAAUUCGUACCUAUAGAGAGGUUAAUCCGCUCACCGAGAUCGGAAGAGCACACGU
B27: target 1 insC 3' of 12,insC 3' of 1 (mixed)
RNA 1: CACCCGUGCAAAAAUGCAGGGGUCUAAAACUGAGCGGAUAACCUCUCUAUGG
RNA 2: GGGAAUGGAUCCACAUCUACGAAUUCGUACCAUAGAGAGGCUUAUCCGCUCACCCGAGAUCGGAAGAGCACACGU
B28: target 1 insA 3' of 22,insC 3' of 16 (mixed)
RNA 1: CACCCGUGCAAAAAUGCAGGGGUCUAAAACUGAGCGGAUAACCUCUCUAUGG
RNA 2: GGGAAUGGAUCCACAUCUACGAAUUCGUACACAUAGACGAGGUUAUCCGCUCACCGAGAUCGGAAGAGCACACGU

What follows are binders tested against T1, EsCas13d, nuclease-dead (assay: crRNA (strand 1, pre-loaded); Mg2+; 40 mM Tris-HCl pH 7.5, 150 mM NaCl, 6 mM MgCl2, 1 mM DTT, 0.1% Tween-20, 0.2 mg/ml BSA; 25 C; 10 min per concentration, then washed). Settings: tags: His6-TwinStrep-SUMO cleaved; N-terminal SNAP kept (SNAP-Surface 488); label: 3' end held by stalled T7 RNA polymerase.

Point of comparison: B16, Kd 27.7 ± 2 nM. Against it:
- B1 — 3.4-fold lower, 8.24 ± 0.23 nM
- B2 — 2.4-fold higher, 67 ± 7 nM
- B3 — within 1.5-fold, 40 ± 5 nM
- B4 — 2.8-fold lower, 9.9 ± 1.1 nM
- B5 — 3.3-fold lower, 8.47 ± 0.27 nM
- B6 — 2.3-fold lower, 12.2 ± 0.34 nM
- B7 — within 1.5-fold, 41 ± 4 nM
- B8 — within 1.5-fold, 35.4 ± 2.8 nM
- B9 — 1.6-fold lower, 17.4 ± 0.8 nM
- B10 — 2.1-fold lower, 13.5 ± 1.3 nM
- B11 — within error, 30.6 ± 2.4 nM
- B12 — 3.2-fold lower, 8.6 ± 0.6 nM
- B13 — within error, 26.6 ± 1.7 nM
- B14 — 3.2-fold lower, 8.6 ± 0.9 nM
- B15 — within error, 33 ± 5 nM
- B17 — 3.3-fold lower, 8.5 ± 1.2 nM
- B18 — 4.3-fold lower, 6.48 ± 0.21 nM
- B19 — 6-fold lower, 4.6 ± 0.5 nM
- B20 — 1.5-fold higher, 41.8 ± 2.3 nM
- B21 — 1.7-fold lower, 16.1 ± 1.5 nM
- B22 — 1.9-fold lower, 14.8 ± 1.1 nM
- B23 — 2.5-fold lower, 11.1 ± 0.4 nM
- B24 — within 1.5-fold, 35 ± 5 nM
- B25 — within error, 38 ± 9 nM
- B26 — within 1.5-fold, 39.2 ± 2.4 nM
- B27 — 3.6-fold lower, 7.7 ± 0.5 nM
- B28 — 2.2-fold higher, ~60 nM

— publication PMC10786891, “Massively parallel profiling of RNA-targeting CRISPR-Cas13d”
